Results reported in the RNAGym collection of RNA variant scans (doi:10.7554/elife.90254).

B1: LINE1-full (parent)
chain: UACGUAGGUGGUUUUCCCCUGAUAGUGCUAAGGGGGCCUGGAAGUUUGGACUGGGCAGAGCUCAACACAGCGUGGCAAAGUGGCUGUGGCUAGACUGCCUCUCUGGAUUCCUCGUCACUCAGCAGGGCAUCUCUGAGAGAAAUGCC

Variants of: B1
Assay: self-cleavage, relative activity (ratio to wild type); higher = more cleavage; in vitro, sequencing; the parent is a self-cleaving ribozyme
Work on U85C A140G yielded a self-cleavage of 0.15. Variant U87G A94G has a self-cleavage of 0. For C84U A121G, the self-cleavage was 0.2. Work on G82A U130A yielded a self-cleavage of 1.97. U85C G97U gave a self-cleavage of 0.02. With G86U U96G the self-cleavage was 0.13. With U85A U143C the self-cleavage was 0.11. U85A U143A showed a self-cleavage of 0.08. In the case of U85A U96G, the self-cleavage is reported as 0.15. Work on C84U A94G yielded a self-cleavage of 0.04. U85C A121G gave a self-cleavage of 0.25. Work on U85C A121U yielded a self-cleavage of 0.25. In the case of U87A U134C, the self-cleavage is reported as 0.1. U85C C113U gave a self-cleavage of 0.1. Variant U85C C113A has a self-cleavage of 0.08. G83C A94G showed a self-cleavage of 0.17. Variant G83A U119A has a self-cleavage of 0.85. With G83A U119C the self-cleavage was 1.51. U85G U108C gave a self-cleavage of 0.22. U81G U134A showed a self-cleavage of 1. In the case of U85C U102G, the self-cleavage is reported as 0.22. U85C U102A showed a self-cleavage of 0.18. In the case of G86A U112C, the self-cleavage is reported as 0.08. In the case of U87A U130C, the self-cleavage is reported as 0.08. Work on U87A U130A yielded a self-cleavage of 0.09. Work on U85A C98G yielded a self-cleavage of 0.28. With U85A C98A the self-cleavage was 0.07. In the case of U85A C98U, the self-cleavage is reported as 0.09. For U87A A141U, the self-cleavage was 0.08. Work on U87A A141G yielded a self-cleavage of 0.06. In the case of G86A G126U, the self-cleavage is reported as 0.02. Work on G86A A136G yielded a self-cleavage of 0.09. Variant G86A A136U has a self-cleavage of 0.06. U85G A107G gave a self-cleavage of 0.09. In the case of U85G A107U, the self-cleavage is reported as 0.27. Variant U85G A138G has a self-cleavage of 0.22. For U87A C123U, the self-cleavage was 0.06. U81C U115A gave a self-cleavage of 1.44. In the case of U81C U115G, the self-cleavage is reported as 1.1. In the case of U81C U115C, the self-cleavage is reported as 1.39. In the case of U85A U109G, the self-cleavage is reported as 0.05. U85C U119C showed a self-cleavage of 0.28. In the case of U85C U119A, the self-cleavage is reported as 0.25. U87C U108A showed a self-cleavage of 0.15. Work on U87C U108C yielded a self-cleavage of 0.24. Variant U81C C95A has a self-cleavage of 0.03. Variant G83C A117G has a self-cleavage of 0.76. In the case of U81G A136G, the self-cleavage is reported as 1.65. U81C A94C gave a self-cleavage of 0. U81C A94U showed a self-cleavage of 0.37. U81C A94G showed a self-cleavage of 0.37. For U85C U134C, the self-cleavage was 0.26. U85C U134A showed a self-cleavage of 0.14. U85C U134G showed a self-cleavage of 0.14. Work on U87A A142G yielded a self-cleavage of 0.07. U85C G125U showed a self-cleavage of 0.11. Variant U85C G125C has a self-cleavage of 0.29. Variant U87C U104A has a self-cleavage of 0.09. With U87C U104C the self-cleavage was 0.22. Work on U85C C101A yielded a self-cleavage of 0.12. U87C C145G gave a self-cleavage of 0.32. Variant U81C U87C has a self-cleavage of 0.4. Variant G82A U96A has a self-cleavage of 0.05. U87C U130C showed a self-cleavage of 0.35. With U87C U130A the self-cleavage was 0.19. For G86A C110U, the self-cleavage was 0.09. C84U A129G gave a self-cleavage of 0.18. U87C A107G showed a self-cleavage of 0.27. In the case of U87C U134A, the self-cleavage is reported as 0.18. Variant G86A U96C has a self-cleavage of 0.05. In the case of G83U, the self-cleavage is reported as 0.86. With G83C the self-cleavage was 0.87. Variant G83A has a self-cleavage of 0.86. G82A U119A gave a self-cleavage of 1.96. For U85G A141G, the self-cleavage was 0.1. In the case of U87A A117U, the self-cleavage is reported as 0.04. For U87C C113U, the self-cleavage was 0. In the case of U87A U132G, the self-cleavage is reported as 0.1. With U87A U132C the self-cleavage was 0.07. With U87A U132A the self-cleavage was 0.07. Work on G86U G105A yielded a self-cleavage of 0.06. Work on U87C G126U yielded a self-cleavage of 0.3. For U85C A124G, the self-cleavage was 0.13. With U85C A124U the self-cleavage was 0.21. In the case of C84G G93A, the self-cleavage is reported as 0.08. For U85C G137A, the self-cleavage was 0.2. With C84G A94U the self-cleavage was 0.13. G86U A124G showed a self-cleavage of 0.07. Work on U81G A140G yielded a self-cleavage of 1.4. Work on U87A A124G yielded a self-cleavage of 0.07. With C84U G89A the self-cleavage was 0.04. With U81C U119A the self-cleavage was 1.59. For G83A U91C, the self-cleavage was 0.24. Variant U85A U132C has a self-cleavage of 0.09. For U87A U104A, the self-cleavage was 0.06. Variant U87A U104C has a self-cleavage of 0.11. G83A U115C gave a self-cleavage of 1.47. In the case of U87G A136U, the self-cleavage is reported as 0.18. In the case of G82C U119A, the self-cleavage is reported as 2.14. With U85C U108A the self-cleavage was 0.28. In the case of U87A A107G, the self-cleavage is reported as 0.1. Variant U87A A107U has a self-cleavage of 0.09. Work on U87C U132A yielded a self-cleavage of 0.33. For G82A U102A, the self-cleavage was 2.12. For U81C U108C, the self-cleavage was 1.95. With U87C C120U the self-cleavage was 0.13. Work on U85C G86U yielded a self-cleavage of 0.07. Work on C84A U100C yielded a self-cleavage of 0.14. U85A C116U showed a self-cleavage of 0.11. With U85A C116A the self-cleavage was 0. G83A U143C gave a self-cleavage of 0.71. For C84G C146A, the self-cleavage was 0.1. U87G A117C showed a self-cleavage of 0.31. Work on U81C A121G yielded a self-cleavage of 1.38. Work on U85G U130C yielded a self-cleavage of 0.24. For U85G G106A, the self-cleavage was 0.29. Work on U87G A124U yielded a self-cleavage of 0.17. With U87G A124G the self-cleavage was 0.31. U81C C133A gave a self-cleavage of 0.9. U85A G125A gave a self-cleavage of 0.04. Variant G82U A141G has a self-cleavage of 1.54. For U85C A92G, the self-cleavage was 0.28. G83A U104C gave a self-cleavage of 0.95. With C84A A141G the self-cleavage was 0.09. For U85A U130A, the self-cleavage was 0.1. Work on U85A U130C yielded a self-cleavage of 0.1. Variant U87A C145U has a self-cleavage of 0.1. For U81C C90U, the self-cleavage was 0.03. U87A U108A showed a self-cleavage of 0.06. U87A U108C showed a self-cleavage of 0.11. With C84U the self-cleavage was 0.14. For C84G, the self-cleavage was 0.09. C84A showed a self-cleavage of 0.1. Work on U87C G105A yielded a self-cleavage of 0.14. With U85A C113U the self-cleavage was 0.06. For G86A A117G, the self-cleavage was 0.09. Variant U87C U96C has a self-cleavage of 0.27. Variant U85C A107G has a self-cleavage of 0.15. Variant U81G U104A has a self-cleavage of 1.23. U85G A124G showed a self-cleavage of 0.32. C84A U130C gave a self-cleavage of 0.15. G86A A124U gave a self-cleavage of 0.05. G86A A124C showed a self-cleavage of 0.03. For U87A U109C, the self-cleavage was 0.11. U81C A138G gave a self-cleavage of 1.14. Work on U87A A94U yielded a self-cleavage of 0.04. For G83A U108C, the self-cleavage was 0.56. With U87A U143C the self-cleavage was 0.11. Variant U87A U119G has a self-cleavage of 0.07. Variant U85G A142G has a self-cleavage of 0.1. G82A G86U gave a self-cleavage of 0.1. Variant U87C C98U has a self-cleavage of 0.02. In the case of U87C C98A, the self-cleavage is reported as 0.09. Work on U87A A129G yielded a self-cleavage of 0.11. Work on C84U A136U yielded a self-cleavage of 0.13. G82A A138G gave a self-cleavage of 2.26. G82A A138U showed a self-cleavage of 1.9. With U87C A140G the self-cleavage was 0.13. U87C A140U showed a self-cleavage of 0.22. With U87C C111U the self-cleavage was 0.23. With G82A U143C the self-cleavage was 2.03. In the case of U85A U134A, the self-cleavage is reported as 0.06. Work on U85A U134C yielded a self-cleavage of 0.13. For U85C G139U, the self-cleavage was 0.22. With U81C A117G the self-cleavage was 1.21. C84A U91C showed a self-cleavage of 0.13. U85A A121U showed a self-cleavage of 0.07.
